IntAct's records for PubMed 31515488

B1: Calcium-binding and coiled-coil domain-containing protein 2 (Homo sapiens), Q13137 (parent)
chain: MEETIKDPPTSAVLLDHCHFSQVIFNSVEKFYIPGGDVTCHYTFTQHFIPRRKDWIGIFRVGWKTTREYYTFMWVTLPIDLNNKSAKQQEVQFKAYYLPKDDEYYQFCYVDEDGVVRGASIPFQFRPENEEDILVVTTQGEVEEIEQHNKELCKENQELKDSCISLQKQNSDMQAELQKKQEELETLQSINKKLELKVKEQKDYWETELLQLKEQNQKMSSENEKMGIRVDQLQAQLSTQEKEMEKLVQGDQDKTEQLEQLKKENDHLFLSLTEQRKDQKKLEQTVEQMKQNETTAMKKQQELMDENFDLSKRLSENEIICNALQRQKERLEGENDLLKRENSRLLSYMGLDFNSLPYQVPTSDEGGARQNPGLAYGNPYSGIQESSSPSPLSIKKCPICKADDICDHTLEQQQMQPLCFNCPICDKIFPATEKQIFEDHVFCHSL
partner: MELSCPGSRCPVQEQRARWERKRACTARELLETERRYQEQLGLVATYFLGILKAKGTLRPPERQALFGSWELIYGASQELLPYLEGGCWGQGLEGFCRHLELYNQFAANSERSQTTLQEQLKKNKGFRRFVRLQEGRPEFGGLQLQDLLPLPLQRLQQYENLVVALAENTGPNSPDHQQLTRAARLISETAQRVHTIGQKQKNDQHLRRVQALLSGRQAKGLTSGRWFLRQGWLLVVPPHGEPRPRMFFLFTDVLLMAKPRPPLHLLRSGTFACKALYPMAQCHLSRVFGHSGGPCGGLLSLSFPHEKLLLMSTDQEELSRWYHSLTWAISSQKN
B2: Melanoma-associated antigen 4 (Homo sapiens), P43358 (parent)
chain: MSSEQKSQHCKPEEGVEAQEEALGLVGAQAPTTEEQEAAVSSSSPLVPGTLEEVPAAESAGPPQSPQGASALPTTISFTCWRQPNEGSSSQEEEGPSTSPDAESLFREALSNKVDELAHFLLRKYRAKELVTKAEMLERVIKNYKRCFPVIFGKASESLKMIFGIDVKEVDPASNTYTLVTCLGLSYDGLLGNNQIFPKTGLLIIVLGTIAMEGDSASEEEIWEELGVMGVYDGREHTVYGEPRKLLTQDWVQENYLEYRQVPGSNPARYEFLWGPRALAETSYVKVLEHVVRVNARVRIAYPSLREAALLEEEEGV
partner: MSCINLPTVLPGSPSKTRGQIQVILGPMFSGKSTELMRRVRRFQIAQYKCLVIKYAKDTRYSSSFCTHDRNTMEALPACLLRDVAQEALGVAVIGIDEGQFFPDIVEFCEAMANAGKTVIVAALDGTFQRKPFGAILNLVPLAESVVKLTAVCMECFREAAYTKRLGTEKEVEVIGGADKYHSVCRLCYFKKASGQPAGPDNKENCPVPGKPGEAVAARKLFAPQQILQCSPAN
B3: ADP-ribosylation factor-like protein 2-binding protein (Homo sapiens), Q9Y2Y0 (parent)
chain: MDALEGESFALSFSSASDAEFDAVVGYLEDIIMDDEFQLLQRNFMDKYYLEFEDTEENKLIYTPIFNEYISLVEKYIEEQLLQRIPEFNMAAFTTTLQHHKDEVAGDIFDMLLTFTDFLAFKEMFLDYRAEKEGRGLDLSSGLVVTSLCKSSSLPASQNNLRH
B4: Rho guanine nucleotide exchange factor 39 (Homo sapiens), Q8N4T4 (parent)
chain: B1 partner
partner: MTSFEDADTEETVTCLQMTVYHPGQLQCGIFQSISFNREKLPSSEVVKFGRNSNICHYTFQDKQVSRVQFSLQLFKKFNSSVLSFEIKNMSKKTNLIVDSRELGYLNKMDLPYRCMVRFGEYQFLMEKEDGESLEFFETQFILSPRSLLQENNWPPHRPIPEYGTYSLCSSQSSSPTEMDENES
B5: Ras and Rab interactor 1 (Homo sapiens), Q13671 (parent)
chain: MESPGESGAGSPGAPSPSSFTTGHLAREKPAQDPLYDVPNASGGQAGGPQRPGRVVSLRERLLLTRPVWLQLQANAAAALHMLRTEPPGTFLVRKSNTRQCQALCMRLPEASGPSFVSSHYILESPGGVSLEGSELMFPDLVQLICAYCHTRDILLLPLQLPRAIHHAATHKELEAISHLGIEFWSSSLNIKAQRGPAGGPVLPQLKARSPQELDQGTGAALCFFNPLFPGDLGPTKREKFKRSFKVRVSTETSSPLSPPAVPPPPVPVLPGAVPSQTERLPPCQLLRRESSVGYRVPAGSGPSLPPMPSLQEVDCGSPSSSEEEGVPGSRGSPATSPHLGRRRPLLRSMSAAFCSLLAPERQVGRAAAALMQDRHTAAGQLVQDLLTQVRAGPEPQELQGIRQALSRARAMLSAELGPEKLLSPKRLEHVLEKSLHCSVLKPLRPILAARLRRRLAADGSLGRLAEGLRLARAQGPGAFGSHLSLPSPVELEQVRQKLLQLLRTYSPSAQVKRLLQACKLLYMALRTQEGEGAGADEFLPLLSLVLAHCDLPELLLEAEYMSELLEPSLLTGEGGYYLTSLSASLALLSGLGQAHTLPLSPVQELRRSLSLWEQRRLPATHCFQHLLRVAYQDPSSGCTSKTLAVPPEASIATLNQLCATKFRVTQPNTFGLFLYKEQGYHRLPPGALAHRLPTTGYLVYRRAEWPETQGAVTEEEGSGQSEARSRGEEQGCQGDGDAGVKASPRDIREQSETTAEGGQGQAQEGPAQPGEPEAEGSRAAEE
partner: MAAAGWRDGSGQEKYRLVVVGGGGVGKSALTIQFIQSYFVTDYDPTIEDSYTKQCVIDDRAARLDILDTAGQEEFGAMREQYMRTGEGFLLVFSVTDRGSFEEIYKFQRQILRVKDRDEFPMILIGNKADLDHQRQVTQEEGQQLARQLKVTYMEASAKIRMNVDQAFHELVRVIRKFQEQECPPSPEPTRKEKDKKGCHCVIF
B6: Tetratricopeptide repeat protein 5 (Homo sapiens), Q8N0Z6 (parent)
chain: MMADEEEEVKPILQKLQELVDQLYSFRDCYFETHSVEDAGRKQQDVQKEMEKTLQQMEEVVGSVQGKAQVLMLTGKALNVTPDYSPKAEELLSKAVKLEPELVEAWNQLGEVYWKKGDVAAAHTCFSGALTHCRNKVSLQNLSMVLRQLRTDTEDEHSHHVMDSVRQAKLAVQMDVHDGRSWYILGNSYLSLYFSTGQNPKISQQALSAYAQAEKVDRKASSNPDLHLNRATLHKYEESYGEALEGFSRAAALDPAWPEPRQREQQLLEFLDRLTSLLESKGKVKTKKLQSMLGSLRPAHLGPCSDGHYQSASGQKVTLELKPLSTLQPGVNSGAVILGKVVFSLTTEEKVPFTFGLVDSDGPCYAVMVYNIVQSWGVLIGDSVAIPEPNLRLHRIQHKGKDYSFSSVRVETPLLLVVNGKPQGSSSQAVATVASRPQCE
B7: Splicing factor 45 (Homo sapiens), Q96I25 (parent)
chain: MSLYDDLGVETSDSKTEGWSKNFKLLQSQLQVKKAALTQAKSQRTKQSTVLAPVIDLKRGGSSDDRQIVDTPPHVAAGLKDPVPSGFSAGEVLIPLADEYDPMFPNDYEKVVKRQREERQRQRELERQKEIEEREKRRKDRHEASGFARRPDPDSDEDEDYERERRKRSMGGAAIAPPTSLVEKDKELPRDFPYEEDSRPRSQSSKAAIPPPVYEEQDRPRSPTGPSNSFLANMGGTVAHKIMQKYGFREGQGLGKHEQGLSTALSVEKTSKRGGKIIVGDATEKDASKKSDSNPLTEILKCPTKVVLLRNMVGAGEVDEDLEVETKEECEKYGKVGKCVIFEIPGAPDDEAVRIFLEFERVESAIKAVVDLNGRYFGGRVVKACFYNLDKFRVLDLAEQV
partner: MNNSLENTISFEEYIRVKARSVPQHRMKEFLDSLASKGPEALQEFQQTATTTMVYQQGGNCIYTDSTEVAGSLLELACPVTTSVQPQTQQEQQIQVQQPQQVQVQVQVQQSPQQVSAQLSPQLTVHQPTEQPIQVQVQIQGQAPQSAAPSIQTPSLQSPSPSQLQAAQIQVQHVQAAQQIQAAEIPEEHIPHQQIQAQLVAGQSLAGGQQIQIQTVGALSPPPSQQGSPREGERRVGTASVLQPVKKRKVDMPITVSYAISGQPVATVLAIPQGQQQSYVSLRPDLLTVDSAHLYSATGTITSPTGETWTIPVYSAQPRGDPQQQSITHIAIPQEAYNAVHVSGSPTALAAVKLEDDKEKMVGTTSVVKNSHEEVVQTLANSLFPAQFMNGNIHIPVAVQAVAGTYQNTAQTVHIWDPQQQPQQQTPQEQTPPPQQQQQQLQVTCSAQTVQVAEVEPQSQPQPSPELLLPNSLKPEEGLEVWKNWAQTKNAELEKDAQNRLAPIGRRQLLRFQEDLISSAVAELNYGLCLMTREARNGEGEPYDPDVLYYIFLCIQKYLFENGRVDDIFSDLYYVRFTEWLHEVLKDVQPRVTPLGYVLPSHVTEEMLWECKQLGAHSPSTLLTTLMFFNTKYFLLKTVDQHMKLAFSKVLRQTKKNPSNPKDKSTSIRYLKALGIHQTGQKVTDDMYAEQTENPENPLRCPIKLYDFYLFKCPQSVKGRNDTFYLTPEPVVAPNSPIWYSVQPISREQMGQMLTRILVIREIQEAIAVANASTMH
B8: Copper homeostasis protein cutC homolog (Homo sapiens), Q9NTM9 (parent)
chain: MKRQGASSERKRARIPSGKAGAANGFLMEVCVDSVESAVNAERGGADRIELCSGLSEGGTTPSMGVLQVVKQSVQIPVFVMIRPRGGDFLYSDREIEVMKADIRLAKLYGADGLVFGALTEDGHIDKELCMSLMAICRPLPVTFHRAFDMVHDPMAALETLLTLGFERVLTSGCDSSALEGLPLIKRLIEQAKGRIVVMPGGGITDRNLQRILEGSGATEFHCSARSTRDSGMKFRNSSVAMGASLSCSEYSLKVTDVTKVRTLNAIAKNILV
partner: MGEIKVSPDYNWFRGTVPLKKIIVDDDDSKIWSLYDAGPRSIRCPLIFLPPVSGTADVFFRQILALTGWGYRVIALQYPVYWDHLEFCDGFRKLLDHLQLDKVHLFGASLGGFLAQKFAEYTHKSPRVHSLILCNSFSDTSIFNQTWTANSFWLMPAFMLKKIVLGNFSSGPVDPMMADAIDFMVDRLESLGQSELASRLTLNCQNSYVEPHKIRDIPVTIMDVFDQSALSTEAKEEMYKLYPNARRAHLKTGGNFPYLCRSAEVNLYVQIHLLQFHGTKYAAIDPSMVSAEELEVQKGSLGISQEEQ
B9: Tuftelin-interacting protein 11 (Homo sapiens), Q9UBB9 (parent)
chain: MSLSHLYRDGEGRIDDDDDERENFEITDWDLQNEFNPNRQRHWQTKEEATYGVWAERDSDDERPSFGGKRARDYSAPVNFISAGLKKGAAEEAELEDSDDEEKPVKQDDFPKDFGPRKLKTGGNFKPSQKGFAGGTKSFMDFGSWERHTKGIGQKLLQKMGYVPGRGLGKNAQGIINPIEAKQRKGKGAVGAYGSERTTQSMQDFPVVDSEEEAEEEFQKELSQWRKDPSGSKKKPKYSYKTVEELKAKGRISKKLTAPQKELSQVKVIDMTGREQKVYYSYSQISHKHNVPDDGLPLQSQQLPQSGKEAKAPGFALPELEHNLQLLIDLTEQEIIQNDRQLQYERDMVVNLFHELEKMTEVLDHEERVISNLSKVLEMVEECERRMQPDCSNPLTLDECARIFETLQDKYYEEYRMSDRVDLAVAIVYPLMKEYFKEWDPLKDCTYGTEIISKWKSLLENDQLLSHGGQDLSADAFHRLIWEVWMPFVRNIVTQWQPRNCDPMVDFLDSWVHIIPVWILDNILDQLIFPKLQKEVENWNPLTDTVPIHSWIHPWLPLMQARLEPLYSPIRSKLSSALQKWHPSDSSAKLILQPWKDVFTPGSWEAFMVKNIVPKLGMCLGELVINPHQQHMDAFYWVIDWEGMISVSSLVGLLEKHFFPKWLQVLCSWLSNSPNYEEITKWYLGWKSMFSDQVLAHPSVKDKFNEALDIMNRAVSSNVGAYMQPGARENIAYLTHTERRKDFQYEAMQERREAENMAQRGIGVAASSVPMNFKDLIETKAEEHNIVFMPVIGKRHEGKQLYTFGRIVIYIDRGVVFVQGEKTWVPTSLQSLIDMAK
partner: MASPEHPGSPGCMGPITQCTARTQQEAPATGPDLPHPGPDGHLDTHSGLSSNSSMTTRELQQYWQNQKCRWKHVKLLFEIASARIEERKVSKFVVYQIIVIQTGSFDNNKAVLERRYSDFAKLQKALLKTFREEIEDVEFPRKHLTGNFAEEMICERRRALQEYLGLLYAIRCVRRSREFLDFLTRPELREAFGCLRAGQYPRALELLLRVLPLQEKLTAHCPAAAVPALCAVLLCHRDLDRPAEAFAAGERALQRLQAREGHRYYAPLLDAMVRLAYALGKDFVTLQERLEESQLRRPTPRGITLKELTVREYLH

Variants of: B1
Conditions: with arg39_human ARHGEF39, Q8N4T4
V248A was tested, and the “effect of a mutation on the interaction” value was “with no effect”.

Variants of: B2
Conditions: with kith_human TK1, P04183
In the case of S41F, the “effect of a mutation on the interaction” value is reported as “with no effect”.

Variants of: B3
Conditions: with arl2_human ARL2, P36404
Chain of arl2_human ARL2, P36404 (P36404 whole entry): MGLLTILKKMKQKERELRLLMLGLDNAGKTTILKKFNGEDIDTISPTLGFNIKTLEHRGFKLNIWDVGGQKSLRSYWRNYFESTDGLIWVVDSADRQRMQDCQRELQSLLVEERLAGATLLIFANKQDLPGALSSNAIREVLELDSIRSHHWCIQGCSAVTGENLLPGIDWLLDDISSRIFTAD
With M45R the “effect of a mutation on the interaction” value was “disrupting interaction strength”.
In the case of E87K, the “effect of a mutation on the interaction” value is reported as “disrupting interaction strength”.

Variants of: B4
Conditions: with tifa_human TIFA
For D204N, the “effect of a mutation on the interaction” value was “with no effect”.
R230C was tested, and the “effect of a mutation on the interaction” value was “with no effect”.

Variants of: B5
Conditions: with rras2_human RRAS2, P62070
For R238Q, the “effect of a mutation on the interaction” value was “with no effect”.

Variants of: B6
Conditions: with kcc2d_human CAMK2D
G424V was tested, and the “effect of a mutation on the interaction” value was “with no effect”.

Variants of: B7
Conditions: with qric1_human QRICH1, Q2TAL8
In the case of T224I, the “effect of a mutation on the interaction” value is reported as “with no effect”.

Variants of: B8
Conditions: with spg21_human SPG21, Q9NZD8
With P77L the “effect of a mutation on the interaction” value was “disrupting interaction strength”.

Variants of: B9
Conditions: with snx20_human SNX20, Q7Z614
S688L was tested, and the “effect of a mutation on the interaction” value was “with no effect”.
